For this assay, the target named is commercial lactoferrin just as isolated from cow's milk (cow (bovine)) (UniProt P24627).

The substance “commercial swine pepsin (from UniProt P00791) (enzyme)” showed a hydrolyzing rate of 11.3%.
